Experimental data from the Human Domainome abundance scans (Beltran et al. 2025).
± gives the uncertainty stated by the source.

B1: LIM and senescent cell antigen-like-containing domain protein 2, residues 13 to 71; numbered along this chain, Q7Z4I7 (parent)
chain: AVCQRCQARFSPAERIVNSNGELYHEHCFVCAQCFRPFPEGLFYEFEGRKYCEHDFQML

Variants of: B1
Experiment: abundance fitness (aPCA) (normalised: wild type 0, dead -1); higher = more abundant; growth selection in yeast, the domain comes from the species named
Settings: Homo sapiens

Variant | abundance fitness
AVCQRCQARFSPAERIVNSNGETYHEHCFVCAQCFRPFPEGLFYEFEGRKYCEHDFQML [L23T] | -0.009 ± 0.048
AVCQRCQARFSPAERIVNSNGEWYHEHCFVCAQCFRPFPEGLFYEFEGRKYCEHDFQML [L23W] | -0.168 ± 0.055
AVCQRCQARFSPAERIVNSNGEYYHEHCFVCAQCFRPFPEGLFYEFEGRKYCEHDFQML [L23Y] | 0.186 ± 0.1
AVCQRCQARFSPAERIVNSNGERYHEHCFVCAQCFRPFPEGLFYEFEGRKYCEHDFQML [L23R] | 0.017 ± 0.037
AVCQRCQARFSPAERIVNSNGEQYHEHCFVCAQCFRPFPEGLFYEFEGRKYCEHDFQML [L23Q] | 0.123 ± 0.051
AVCQRCQARFSPAERIVNSNGESYHEHCFVCAQCFRPFPEGLFYEFEGRKYCEHDFQML [L23S] | -0.003 ± 0.045
AVCQRCQARFSPAERIVNSNGELYHGHCFVCAQCFRPFPEGLFYEFEGRKYCEHDFQML [E26G] | -0.353 ± 0.083
AVCQRCQARFSPAERIVNSNGELYHPHCFVCAQCFRPFPEGLFYEFEGRKYCEHDFQML [E26P] | -0.294 ± 0.093
AVCQRCQARFSPAERIVNSNGELYHYHCFVCAQCFRPFPEGLFYEFEGRKYCEHDFQML [E26Y] | -0.115 ± 0.18
AVCQRCQARFSPAERIVNSNGELYHDHCFVCAQCFRPFPEGLFYEFEGRKYCEHDFQML [E26D] | -0.114 ± 0.19
AVCQRCQARFSPAERIVNSNGELYHIHCFVCAQCFRPFPEGLFYEFEGRKYCEHDFQML [E26I] | -0.084 ± 0.17
AVCQRCQARFSPAERIVNSNGELYHCHCFVCAQCFRPFPEGLFYEFEGRKYCEHDFQML [E26C] | -0.51 ± 0.21
AVCQRCQARFSPAERIVNSNGELYHLHCFVCAQCFRPFPEGLFYEFEGRKYCEHDFQML [E26L] | -0.401 ± 0.065
AVCQRCQARFSPAERIVNSNGELYHTHCFVCAQCFRPFPEGLFYEFEGRKYCEHDFQML [E26T] | -0.164 ± 0.1
AVCQRCQARFSPAERIVNSNGELYHNHCFVCAQCFRPFPEGLFYEFEGRKYCEHDFQML [E26N] | -0.395 ± 0.27
AVCQRCQARFSPAERIVNSNGELYHKHCFVCAQCFRPFPEGLFYEFEGRKYCEHDFQML [E26K] | -0.125 ± 0.1
AVCQRCQARFSPAERIVNSNGELYHMHCFVCAQCFRPFPEGLFYEFEGRKYCEHDFQML [E26M] | -0.253 ± 0.095
AVCQRCQARFSPAERIVNSNGELYHFHCFVCAQCFRPFPEGLFYEFEGRKYCEHDFQML [E26F] | -0.293 ± 0.12
AVCQRCQARFSPAERIVNSNGELYHWHCFVCAQCFRPFPEGLFYEFEGRKYCEHDFQML [E26W] | -0.547 ± 0.14
AVCQRCQARFSPAERIVNSNGELYHHHCFVCAQCFRPFPEGLFYEFEGRKYCEHDFQML [E26H] | -0.082 ± 0.2
AVCQRCQARFSPAERIVNSNGELYHVHCFVCAQCFRPFPEGLFYEFEGRKYCEHDFQML [E26V] | 0.022 ± 0.068
AVCQRCQARFSPAERIVNSNGELYHSHCFVCAQCFRPFPEGLFYEFEGRKYCEHDFQML [E26S] | -0.051 ± 0.072
AVCQRCQARFSPAERIVNSNGELYHRHCFVCAQCFRPFPEGLFYEFEGRKYCEHDFQML [E26R] | -0.237 ± 0.073

Variant | abundance fitness
AVCQRCQARFSPAERIVNSNGELYQEHCFVCAQCFRPFPEGLFYEFEGRKYCEHDFQML [H25Q] | -0.987 ± 0.17
AVCQRCQARFSPAERIVNSNGELYFEHCFVCAQCFRPFPEGLFYEFEGRKYCEHDFQML [H25F] | -0.895 ± 0.16
AVCQRCQARFSPAERIVNSNGELYIEHCFVCAQCFRPFPEGLFYEFEGRKYCEHDFQML [H25I] | -0.972 ± 0.18
AVCQRCQARFSPAERIVNSNGELYREHCFVCAQCFRPFPEGLFYEFEGRKYCEHDFQML [H25R] | -0.784 ± 0.083
AVCQRCQARFSPAERIVNSNGELYVEHCFVCAQCFRPFPEGLFYEFEGRKYCEHDFQML [H25V] | -0.838 ± 0.1
AVCQRCQARFSPAERIVNSNGELYDEHCFVCAQCFRPFPEGLFYEFEGRKYCEHDFQML [H25D] | -0.96 ± 0.27
AVCQRCQARFSPAERIVNSNGELYCEHCFVCAQCFRPFPEGLFYEFEGRKYCEHDFQML [H25C] | 0.048 ± 0.095
AVCQRCQARFSPAERIVNSNGELYPEHCFVCAQCFRPFPEGLFYEFEGRKYCEHDFQML [H25P] | -0.752 ± 0.1
AVCQRCQARFSPAERIVNSNGELYAEHCFVCAQCFRPFPEGLFYEFEGRKYCEHDFQML [H25A] | -0.918 ± 0.14
AVCQRCQARFSPAERIVNSNGELYSEHCFVCAQCFRPFPEGLFYEFEGRKYCEHDFQML [H25S] | -0.894 ± 0.095
AVCQRCQARFSPAERIVNSNGELYKEHCFVCAQCFRPFPEGLFYEFEGRKYCEHDFQML [H25K] | -0.929 ± 0.15
AVCQRCQARFSPAERIVNSNGELYGEHCFVCAQCFRPFPEGLFYEFEGRKYCEHDFQML [H25G] | -0.832 ± 0.14
AVCQRCQARFSPAERIVNSNGELYYEHCFVCAQCFRPFPEGLFYEFEGRKYCEHDFQML [H25Y] | -0.786 ± 0.26
AVCQRCQARFSPAERIVNSNGELYMEHCFVCAQCFRPFPEGLFYEFEGRKYCEHDFQML [H25M] | -0.856 ± 0.1
AVCQRCQARFSPAERIVNSNGELYWEHCFVCAQCFRPFPEGLFYEFEGRKYCEHDFQML [H25W] | -0.568 ± 0.1
AVCQRCQARFSPAERIVNSNGELYTEHCFVCAQCFRPFPEGLFYEFEGRKYCEHDFQML [H25T] | -0.808 ± 0.12
AVCQRCQARFSPAERIVNSNGELYLEHCFVCAQCFRPFPEGLFYEFEGRKYCEHDFQML [H25L] | -0.668 ± 0.06
AVCQRCQARFSPAERIVNSNGELYHEQCFVCAQCFRPFPEGLFYEFEGRKYCEHDFQML [H27Q] | 0.148 ± 0.31
AVCQRCQARFSPAERIVNSNGELYHEPCFVCAQCFRPFPEGLFYEFEGRKYCEHDFQML [H27P] | -0.228 ± 0.33
AVCQRCQARFSPAERIVNSNGELYHESCFVCAQCFRPFPEGLFYEFEGRKYCEHDFQML [H27S] | -0.227 ± 0.29
AVCQRCQARFSPAERIVNSNGELYHEVCFVCAQCFRPFPEGLFYEFEGRKYCEHDFQML [H27V] | -0.001 ± 0.31
AVCQRCQARFSPAERIVNSNGELYHEGCFVCAQCFRPFPEGLFYEFEGRKYCEHDFQML [H27G] | -0.294 ± 0.23
